Results: patent publication US20260167712A1, “INHIBITORY ANTIBODIES AGAINST GLUT1” (ICOSAGEN CELL FACTORY OÜ, priority 2022, published 2026)
Entries after “also recorded” stand apart in the source; their conditions may differ.

T1: SLC2A4 pseudotyped VLPs (Homo sapiens, UniProt P14672)
T1 sequence (P14672 1-509): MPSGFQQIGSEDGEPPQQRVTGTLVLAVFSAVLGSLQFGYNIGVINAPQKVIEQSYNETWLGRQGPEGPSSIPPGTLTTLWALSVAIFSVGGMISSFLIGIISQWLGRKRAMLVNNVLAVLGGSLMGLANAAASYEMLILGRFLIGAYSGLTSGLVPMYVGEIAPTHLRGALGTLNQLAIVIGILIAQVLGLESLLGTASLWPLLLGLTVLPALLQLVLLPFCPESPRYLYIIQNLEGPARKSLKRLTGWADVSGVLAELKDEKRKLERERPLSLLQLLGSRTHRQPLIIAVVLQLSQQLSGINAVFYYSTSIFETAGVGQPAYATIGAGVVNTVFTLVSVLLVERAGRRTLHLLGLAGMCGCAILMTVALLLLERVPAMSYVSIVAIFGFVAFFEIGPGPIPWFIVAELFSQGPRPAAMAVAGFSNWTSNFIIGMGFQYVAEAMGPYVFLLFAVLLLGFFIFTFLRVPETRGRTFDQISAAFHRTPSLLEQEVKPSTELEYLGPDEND

B1: 2E5 #22 (antibody, V domains shown)
VH: AVTLDESGGGLQTPGGALSLVCKASGFTFSTKGMGWVRQTPGKGLEWVAGISSMRRYTYYAPAVKGRATISRDNGQSTVRLQLSSLRAEDSGTYYCARDATYCSWTTSTCGWSGGTIDAWGHGTEVIVSS
VL: ALTQPSSVSANLGGTVKITCSGGSGNYGWYQQKSPGSVPVTVIYSNDKRPSDIPSRFSGSGSGSTATLTITGVQVEDEAVYFCGSRDSSYVGLFGAGTTLTVL
B2: 6F12 #33 (antibody, V domains shown)
VH: AVTLDESGGGLQTPGGALSLVCKASGFTFSDHAIFWVRQAPDKGLEFVAAISSGTGSWTAYATVVKGRATISRDNGQSTVRLQLNNLRAADTATYYCAKGAGSACCYAGSIDAWGHGTEVIVSS
VL: ALTQPSSVSANPGETVKITCSGGSSSSYYGWYQQKSPGSAPVTLIYYNDKRPSDIPSRFSGSKSGSTATLTITGVQVEDEAVYYCGTGDGSFAIFGAGTTLTVL

Tests used:
[1] = target: T1, SLC2A4 pseudotyped VLPs; assay: ELISA-based VLP binding assay, SLC2A4; conditions: compared to MOCK VLPs, FIG. 3
Experimental: An ELISA-based VLP binding assay was carried out to compare the EC50 values of antibody clones (FIG. 1). Similarly, ELISA based VLP binding assay was performed to compare the binding of the antibodies to different glucose transporters (FIG. 3). MaxiSorp™ high-capacity binding ELISA plate (Thermo Fisher Scientific, US) were coated with 5 μg/mL SLC2A1, SLC2A2, SLC2A3, SLC2A4 pseudotyped VLPs or MOCK VLPs in PBS overnight. The plate was washed and blocked for 1 h with 0.05% Tween 20, 2% BSA in PBS. Serial dilutions of antibodies were incubated on a washed plate for 1 hour, followed by a 1-hour incubation with goat anti-human IgG horse radish peroxidase (HRP) conjugated (Invitrogen) antibody. TMB (3,3′,5,5′-Tetramethylbenzidine) Solution VII (Biopanda Diagnostics) was used as a substrate for HRP and 0.5 M H2SO4 was used as stop solution. After every step, the wells were washed with 0.05% Tween 20, 0.1% Proclin 300 PBS solution. Absorption at 450 nm was measured with Thermo Scientific™ Multiskan™ FC Microplate Photometer. Exemplary wise used antibodies 1G2 #9, 2A2 #12, 2E5 #22, 5G5 #30, 6F12 #33, 7C3 #39 all bound SLC2A1 VLPs with low nanomolar EC50 values (FIG. 1).

[2] = test system: PC3 prostate cancer cell line; assay: Cell proliferation inhibition assay (Incucyte), PC3; type: cell-based; conditions: co-treatment with IACS-010759, compared to single agents, FIG. 11A
Experimental: (§1) Incucyte S3 Live cell analysis instrument and Cell-by-Cell analysis software module (Sartorius) were used to evaluate the effect of anti-SLC2A1 antibodies on cancer cell proliferation label-free (FIGS. 5-11). MCF7, PC3 or PANC1 or MIAPACA2 cells were plated on flat bottom tissue culture 96-well plate in […] medium (Ximbio) supplemented with 2.5% FBS. Cells were incubated overnight and 0.02 nM to 13 μM anti-SLC2A1 antibodies, anti-HEL isotype control, PBS or BAY-876 were added to the cells alone or in combination with metformin (CaymanChem), phenformin (Sigma Aldrich) or IACS-010759 (CaymanChem). Cell confluence or object count was measured for 24 to 96 hours with Incucyte S3 and normalized to timepoint 0 h or 4h. anti-SLC2A1 antibodies inhibit cancer cell proliferation alone and especially in combination with complex-I inhibitors metformin, phenformin and IACS-010759. Exemplary antibodies 1G2 #9, 2A2 #12, 2E5 #22, 5G5 #30, 6F12 #33, 7C3 #39 and R14 #54 were used in proliferation assays.

[3] = Body weight in MiaPaca2 xenograft study; type: in vivo, mice; conditions: during treatments, FIG. 12B
Description: (§2) Hsd:Athymic Nude-Foxn1^nu mice (10 per group) were inoculated with 5e6 MiaPaca2 cells/mouse subcutaneously.

[4] = test system: MiaPaca2 xenograft tumors; assay: Antitumor efficacy against MiaPaca2 xenograft tumors; type: in vivo, mice; conditions: 6F12 #33 200 ug per mouse IP every 72 h plus daily Phenformin 20 mg/kg IP, versus phenformin alone, FIG. 12A
Description: as §2

[5] = test system: MIAPACA2 pancreatic cancer cell line; assay: Cell proliferation inhibition assay (Incucyte), MIAPACA2; type: cell-based; conditions: co-treatment with IACS-010759, compared to single agents, FIG. 11C
Experimental: as §1

[6] = test system: PANC1 pancreatic cancer cell line; assay: Cell proliferation inhibition assay (Incucyte), PANC1; type: cell-based; conditions: co-treatment with IACS-010759, compared to single agents, FIG. 11B
Experimental: as §1

| Molecule | binding to SLC2A4 VLPs [1] | PC3 cell growth in combination with IACS-010759 [2] | body weight [3] | tumor growth, cotreatment with phenformin [4] | MIAPACA2 cell growth in combination with IACS-010759 [5] | PANC1 cell growth in combination with IACS-010759 [6] |
| --- | --- | --- | --- | --- | --- | --- |
| B1 | did not bind; also recorded: Some binding | strong synergistic growth inhibition |  |  |  |  |
| B2 | did not bind |  | No changes; also recorded: remained unchanged | statistically significant tumor growth inhibition | dramatic growth reduction | dramatic growth reduction |
